B1: C5A (XPA23) VH P53E (antibody, V domains shown)
VH: EVQLLESGGGLVQPGGSLRLSCAASGFTFSKYFMFWVRQAPGKGLEWVSVISESGGMTRYADSVKGRFTISRDNSKNTLYLQMNSLRAEDTAVYYCARVGYGGNSDYWGQGTLVTVSS
VL: DIQMTQSPSSVSASVGDRLTIICRASQDINRWLAWYQQTPGNAPKLLIHSATSLQSGVPSRFSGSGSGTDFTLTINSLQPEDFATYYCQQADSFPLTFGGGTKVEIK
B2: C5A (XPA23) VH S54Y (antibody, V domains shown)
VH: B1 VH with E53P, S54Y
VL: B1 VL
B3: C5A (XPA23) VH G55E (antibody, V domains shown)
VH: B1 VH with E53P, G55E
VL: B1 VL
B4: C5A (XPA23) VH G56D (antibody, V domains shown)
VH: B1 VH with E53P, G56D
VL: B1 VL
B5: C5A (XPA23) VH G55N (antibody, V domains shown)
VH: B1 VH with E53P, G55N
VL: B1 VL
B6: C5A (XPA23) VH G55S (antibody, V domains shown)
VH: B1 VH with E53P, G55S
VL: B1 VL
B7: C5A (XPA23) VH G55Q (antibody, V domains shown)
VH: B1 VH with E53P, G55Q
VL: B1 VL
B8: C5A (XPA23) VH M57T (antibody, V domains shown)
VH: B1 VH with E53P, M57T
VL: B1 VL
B9: C5A (XPA23) VH S54D (antibody, V domains shown)
VH: B1 VH with E53P, S54D
VL: B1 VL
B10: C5A (XPA23) VH G56R (antibody, V domains shown)
VH: B1 VH with E53P, G56R
VL: B1 VL
B11: C5A (XPA23) VH G56T (antibody, V domains shown)
VH: B1 VH with E53P, G56T
VL: B1 VL
B12: C5A (XPA23) VH M57K (antibody, V domains shown)
VH: B1 VH with E53P, M57K
VL: B1 VL
B13: C5A (XPA23) VH M57H (antibody, V domains shown)
VH: B1 VH with E53P, M57H
VL: B1 VL
B14: C5A (XPA23) VH P53Y (antibody, V domains shown)
VH: B1 VH with E53Y
VL: B1 VL
B15: C5A (XPA23) VH G56Y (antibody, V domains shown)
VH: B1 VH with E53P, G56Y
VL: B1 VL
B16: C5A (XPA23) VH G55K (antibody, V domains shown)
VH: B1 VH with E53P, G55K
VL: B1 VL
B17: C5A (XPA23) VH S54T (antibody, V domains shown)
VH: B1 VH with E53P, S54T
VL: B1 VL
B18: C5A (XPA23) VH S54N (antibody, V domains shown)
VH: B1 VH with E53P, S54N
VL: B1 VL
B19: C5A (XPA23) VH M57S (antibody, V domains shown)
VH: B1 VH with E53P, M57S
VL: B1 VL
B20: C5A (XPA23) VH G55R (antibody, V domains shown)
VH: B1 VH with E53P, G55R
VL: B1 VL
B21: C5A (XPA23) VH P53S (antibody, V domains shown)
VH: B1 VH with E53S
VL: B1 VL
B22: C5A (XPA23) VH P53K (antibody, V domains shown)
VH: B1 VH with E53K
VL: B1 VL
B23: C5A (XPA23) VH S54K (antibody, V domains shown)
VH: B1 VH with E53P, S54K
VL: B1 VL
B24: C5A (XPA23) VH S54E (antibody, V domains shown)
VH: B1 VH with E53P, S54E
VL: B1 VL
B25: C5A (XPA23) VH G56E (antibody, V domains shown)
VH: B1 VH with E53P, G56E
VL: B1 VL
B26: C5A (XPA23) VH M57R (antibody, V domains shown)
VH: B1 VH with E53P, M57R
VL: B1 VL
B27: C5A (XPA23) VH S54Q (antibody, V domains shown)
VH: B1 VH with E53P, S54Q
VL: B1 VL
B28: C5A (XPA23) VH G56K (antibody, V domains shown)
VH: B1 VH with E53P, G56K
VL: B1 VL
B29: C5A (XPA23) VH G56Q (antibody, V domains shown)
VH: B1 VH with E53P, G56Q
VL: B1 VL
B30: C5A (XPA23) VH P53Q (antibody, V domains shown)
VH: B1 VH with E53Q
VL: B1 VL
B31: C5A (XPA23) VH S54R (antibody, V domains shown)
VH: B1 VH with E53P, S54R
VL: B1 VL
B32: C5A (XPA23) VH G56H (antibody, V domains shown)
VH: B1 VH with E53P, G56H
VL: B1 VL
B33: C5A (XPA23) VH P53N (antibody, V domains shown)
VH: B1 VH with E53N
VL: B1 VL
B34: C5A (XPA23) VH G56N (antibody, V domains shown)
VH: B1 VH with E53P, G56N
VL: B1 VL
B35: C5A (XPA23) VH G55Y (antibody, V domains shown)
VH: B1 VH with E53P, G55Y
VL: B1 VL

Residue numbers refer to the chain shown, from its start. Names and notes keep the numbering of the source.

One assay has as its target binding partner of C5A (XPA23). The assay is described as follows: Biacore, K-off.
On to B1, for which the fold difference in affinity vs original turned out to be 0.03 fold.

For the molecule B2, the fold difference in affinity vs original stood at 0.99 fold.

With B3, the fold difference in affinity vs original turned out to be 0.11 fold.

As for B4, the fold difference in affinity vs original was found to be 0.05 fold.

On to B5, for which the fold difference in affinity vs original was found to be 0.1 fold.

Consider B6, for which the fold difference in affinity vs original worked out at 1.02 fold.

In the case of B7, the fold difference in affinity vs original was 0.9 fold.

Consider B8, for which the fold difference in affinity vs original turned out to be 0.06 fold.

Take B9: the fold difference in affinity vs original is 0.12 fold.

B10: the fold difference in affinity vs original was 2.11 fold.

As to B11, the fold difference in affinity vs original turned out to be 1.11 fold.

Regarding B12, the fold difference in affinity vs original stood at 0.04 fold.

For the molecule B13, the fold difference in affinity vs original worked out at 0.08 fold.

As for B14, the fold difference in affinity vs original came to 0.03 fold.

Take B15: the fold difference in affinity vs original stood at 1.27 fold.

As to B16, the fold difference in affinity vs original was found to be 0.11 fold.

With B17, the fold difference in affinity vs original was 0.14 fold.

As to B18, the fold difference in affinity vs original was determined as 0.08 fold.

In the case of B19, the fold difference in affinity vs original turned out to be 0.04 fold.

B20: the fold difference in affinity vs original worked out at 0.95 fold.

On to B21, for which the fold difference in affinity vs original was found to be 0.03 fold.

In the case of B22, the fold difference in affinity vs original came out at 0.04 fold.

For the molecule B23, the fold difference in affinity vs original was found to be 1.53 fold.

As for B24, the fold difference in affinity vs original amounted to 0.03 fold.

B25: the fold difference in affinity vs original stood at 1.21 fold.

With B26, the fold difference in affinity vs original worked out at 0.06 fold.

Consider B27, for which the fold difference in affinity vs original is 1.01 fold.

Regarding B28, the fold difference in affinity vs original came out at 2.05 fold.

Regarding B29, the fold difference in affinity vs original was determined as 1.31 fold.

As for B30, the fold difference in affinity vs original turned out to be 0.03 fold.

Regarding B31, the fold difference in affinity vs original worked out at 1.43 fold.

As for B32, the fold difference in affinity vs original worked out at 0.82 fold.

Regarding B33, the fold difference in affinity vs original was determined as 0.06 fold.

On to B34, for which the fold difference in affinity vs original is 1.06 fold.

Take B35: the fold difference in affinity vs original is 0.08 fold.

A further assay addresses binding partner of C5A (XPA23). The assay is described as follows: Biacore.
As for B1, the fold affinity vs original was found to be 0.03 fold.

As to B2, the fold affinity vs original worked out at 0.99 fold.

B3: the fold affinity vs original was 0.11 fold.

Take B4: the fold affinity vs original is 0.05 fold.

In the case of B5, the fold affinity vs original came to 0.1 fold.

On to B6, for which the fold affinity vs original stood at 1.02 fold.

Regarding B7, the fold affinity vs original stood at 0.9 fold.

For the molecule B8, the fold difference in affinity vs original came to 0.06 fold.

On to B9, for which the fold affinity vs original came to 0.12 fold.

Consider B10, for which the fold affinity vs original amounted to 2.11 fold.

Consider B11, for which the fold difference in affinity vs original turned out to be 1.11 fold.

Turning to B12, the fold affinity vs original is 0.04 fold.

In the case of B13, the fold affinity vs original is 0.08 fold.

Turning to B14, the fold affinity vs original was 0.03 fold.

As to B15, the fold affinity vs original worked out at 1.27 fold.

For the molecule B16, the fold affinity vs original worked out at 0.11 fold.

Regarding B17, the fold difference in affinity vs original came to 0.14 fold.

With B18, the fold affinity vs original amounted to 0.08 fold.

Regarding B19, the fold affinity vs original is 0.04 fold.

Take B20: the fold affinity vs original came to 0.95 fold.

With B21, the fold affinity vs original turned out to be 0.03 fold.

For the molecule B22, the fold affinity vs original was found to be 0.04 fold.

As for B23, the fold affinity vs original was 1.53 fold.

On to B24, for which the fold affinity vs original came to 0.03 fold.

Turning to B25, the fold affinity vs original was found to be 1.21 fold.

Take B26: the fold affinity vs original worked out at 0.06 fold.

In the case of B27, the fold affinity vs original came to 1.01 fold.

In the case of B28, the fold affinity vs original came out at 2.05 fold.

As to B29, the fold affinity vs original was found to be 1.31 fold.

In the case of B30, the fold affinity vs original was 0.03 fold.

As for B31, the fold affinity vs original was 1.43 fold.

Turning to B32, the fold affinity vs original was determined as 0.82 fold.

On to B33, for which the fold affinity vs original came to 0.06 fold.

Turning to B34, the fold affinity vs original was determined as 1.06 fold.

On to B35, for which the fold affinity vs original was 0.08 fold.

(Values after patent US20110118447A1.)
